The chains are these.
B1: SS-15124 (antibody, V domains shown)
VH: EVQLVESGGGLVKPGGSLRLSCAASGFTFSSYSMNWVRQAPGKGLEWVSSISSSSHYISHADSVKGRFTISRDNAKNSLYLQMNSLRAEDTAVYFCARDYDFHSAYYDAFDVWGQGTMVTVSS
VL: ESVLTQPPSVSGAPGQRVTISCTGSSSNIGAGYDVHWYQQLPGTAPKLLISGNSNRPSGVPDRFSGSKSGTSASLAITGLQAEDEADYYCQSYDSSLSGSVFGGGTKLTVLG
notes: 31H4 His variant: HC 66(56), 70(60), parental(113H)
B2: SS-15139 (antibody, V domains shown)
VH: B1 VH with H56S, H60Y, D62H, Y106H
VL: B1 VL
notes: 31H4 His variant: HC 72(62), 132(106), parental(113H)
B3: SS-15136 (antibody, V domains shown)
VH: B1 VH with H56S, Y106H
VL: B1 VL
notes: 31H4 His variant: HC 70(60), 132(106), parental(113H)
B4: SS-15141 (antibody, V domains shown)
VH: B1 VH with H56S, H60Y, S63H, Y106H
VL: B1 VL
notes: 31H4 His variant: HC 73(63), 132(106), parental(113H)
B5: SS-15126 (antibody, V domains shown)
VH: B1 VH with H60Y, S63H
VL: B1 VL
notes: 31H4 His variant: HC 66(56), 73(63), parental(113H)

Here are results for 5 molecules from patent US20160032014A1 (Amgen, published 2016).

One may read the Kd as a measure of binding affinity in units of concentration. Lower therefore signals tighter binding. Broadly, the koff is the first-order rate constant of dissociation. By kon is commonly meant a measure of how fast the partners come together.

Changes are numbered by the printed parent chain.

The target in the first experiment is T1, human PCSK9 (self-cleaved, mature, secreted PCSK9 comprising amino acids 31 to 692 of SEQ ID NO: 2) (human, UniProt Q8NBP7 31-692, biotinylated in the ELISAs).
T1 construct: Limits 31-692 are stated for the immunogen; the assays only say human PCSK9; also called huPCSK9; rhu PCSK9
The experiment can be described thus: SPR pH 5.5.
B1: the “estimated complex half life pH 5.5” value was 100 s.
B2: the “estimated complex half life pH 5.5” value is 100 s.
For the molecule B3, the “estimated complex half life pH 5.5” value was 100 s.
Same read-out and setting: the figure for B4 is 100 s.
As for B5, the “estimated complex half life pH 5.5” value was 100 s.

For a further experiment, the target named is T1, human PCSK9 (self-cleaved, mature, …). The experiment can be described thus: SPR pH 7.4.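 Also: antibodies captured as ligand on the sensor surface, five analyte concentrations injected with buffer blanks, double-referenced data fit to a 1:1 binding model.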
B1 had a Kd of 0.327 nM, a koff of 0.000525 s⁻¹ and a kon of 1.6e+06 M⁻¹ s⁻¹.
B2 displayed a Kd of 0.19 nM, a koff of 0.000248 s⁻¹ and a kon of 1.31e+06 M⁻¹ s⁻¹.
The corresponding values for B3 are 0.241 nM, 0.000298 s⁻¹ and 1.23e+06 M⁻¹ s⁻¹.
Take B4: the Kd was 0.185 nM, the koff was found to be 0.000255 s⁻¹ and the kon is 1.38e+06 M⁻¹ s⁻¹.
The corresponding values for B5 are 0.257 nM, 0.000385 s⁻¹ and 1.5e+06 M⁻¹ s⁻¹.
